The term Kd denotes the constant that tells how readily two partners part at equilibrium. Usually IC50 stands for the concentration needed to halve the response being measured.

Experiment [1] deals with HLA-A*26:02. The experiment in a line: IEDB peptide-MHC binding, purified MHC/competitive/fluorescence; filed as Kd, often an IC50 or EC50 that approximates it; ≥ and ≤ were set here for values at or beyond the usual limits of such assays. The following applies: source organism: Orthomarburgvirus marburgense.
Experiment [2] deals with HLA-B*18:01. Described as above. The following applies: source organism: Orthomarburgvirus marburgense.
In experiment [3] the target is HLA-A*02:01. Described as above. The following applies: source organism: Orthomarburgvirus marburgense.
The target in experiment [4] is HLA-B*15:01. The experiment in a line: IEDB peptide-MHC binding, purified MHC/direct/fluorescence; filed as Kd, often an IC50 or EC50 that approximates it; ≥ and ≤ were set here for values at or beyond the usual limits of such assays.
The target of experiment [5] is HLA-B*08:02. The experiment is described as above. The following applies: source organism: Orthomarburgvirus marburgense.
Experiment [6] deals with HLA-B*48:01. Described as above. The following applies: source organism: Marburg virus - Musoke, Kenya, 1980.
The target of experiment [7] is HLA-A*11:01. The experiment is described as above.
Experiment [8] has as its target HLA-A*69:01. Described as above.
Experiment [9] addresses HLA-B*57:01. The description is as above. The following applies: source organism: Marburg virus - Musoke, Kenya, 1980.
Experiment [10] addresses HLA-A*01:01. The description is as above.
In experiment [11] the target is HLA-B*07:02. Described as above.
Experiment [12] deals with HLA-B*27:05. The experiment is described as above.
In experiment [13] the target is HLA-A*68:02. The description is as above. The note with it: source organism: Marburg virus - Musoke, Kenya, 1980.
In experiment [14] the target is HLA-B*15:17. Described as above. The following applies: source organism: Marburg virus - Musoke, Kenya, 1980.
Experiment [15] addresses HLA-A*31:01. The description is as above.
Experiment [16] deals with HLA-B*15:09. Described as above.
The target of experiment [17] is HLA-B*58:01. The description is as above.
The target in experiment [18] is HLA-B*73:01. The experiment is described as above. The following applies: source organism: Marburg virus - Musoke, Kenya, 1980.
Experiment [19] deals with HLA-B*44:02. Described as above.
Experiment [20] has as its target HLA-A*30:01. Described as above. The following applies: source organism: Escherichia coli O157:H7.
The target of experiment [21] is HLA-A*26:01. Described as above. The following applies: source organism: Escherichia coli O157:H7.
Experiment [22] addresses HLA-A*24:03. The experiment is described as above. The following applies: source organism: Escherichia coli O157:H7.
The target of experiment [23] is HLA-B*40:01. The description is as above.
Experiment [24] addresses HLA-A*03:01. The experiment is described as above.
For experiment [25], the target named is HLA-B*08:01. Described as above. The following applies: source organism: Escherichia coli O157:H7.
Experiment [26] concerns the target HLA-A*02:01. The description is as above.
In experiment [27] the target is HLA-C*14:02. Kind of experiment: IEDB peptide-MHC binding, purified MHC/competitive/fluorescence; filed as Kd, often an IC50 or EC50 that approximates it; ≥ and ≤ were set here for values at or beyond the usual limits of such assays.
For experiment [28], the target named is HLA-B*83:01. Described as above.
Experiment [29] concerns the target HLA-A*03:19. The description is as above. The note with it: source organism: Mycobacterium tuberculosis C.
Experiment [30] concerns the target HLA-A*32:15. Described as above.
The target in experiment [31] is HLA-B*15:42. The experiment is described as above.
Experiment [32] deals with HLA-C*06:02. The description is as above.
For experiment [33], the target named is HLA-B*45:06. The description is as above.
The target in experiment [34] is HLA-A*02:01. Kind of experiment: IEDB peptide-MHC binding, cellular MHC/competitive/fluorescence; ≥ and ≤ were set here for values at or beyond the usual limits of such assays. The following applies: source organism: Homo sapiens.
Experiment [35] concerns the target HLA-B*27:04. Described as above. The following applies: source organism: Human herpesvirus 4 strain B95-8.
Experiment [36] addresses HLA-A*32:07. Kind of experiment: IEDB peptide-MHC binding, purified MHC/competitive/fluorescence; filed as Kd, often an IC50 or EC50 that approximates it; ≥ and ≤ were set here for values at or beyond the usual limits of such assays. The following applies: source organism: Coxiella burnetii Dugway 5J108-111.
The target of experiment [37] is HLA-A*68:23. The experiment is described as above. The following applies: source organism: Coxiella burnetii Dugway 5J108-111.
Experiment [38] has as its target HLA-A*24:02. Kind of experiment: IEDB peptide-MHC binding, purified MHC/direct/fluorescence; filed as Kd, often an IC50 or EC50 that approximates it; ≥ and ≤ were set here for values at or beyond the usual limits of such assays. The note with it: source organism: Coxiella burnetii.
Experiment [39] deals with HLA-C*03:03. The description is as above. The following applies: source organism: Coxiella burnetii Dugway 5J108-111.
For experiment [40], the target named is HLA-C*08:02. The experiment is described as above. The note with it: source organism: Coxiella burnetii Dugway 5J108-111.
Where [41] appears, read: source organism: Marburg virus - Musoke, Kenya, 1980.
Where [42] appears, read: source organism: Escherichia coli O157:H7.
Where [43] appears, read: source organism: Mycobacterium tuberculosis C.
The mark [44] stands for this setting: source organism: Coxiella burnetii Dugway 5J108-111.
The mark [45] stands for this setting: source organism: Coxiella burnetii.

As for NRWKSWFSY, the Kd in experiment [1] is no less than 20 µM; in [2], no less than 20 µM; in experiment [3] it was 2.54 µM; in [4] (setting [41]), no less than 20 µM; in experiment [5], no less than 20 µM; in experiment [6], no less than 20 µM. The Kd in [7] (setting [41]) was no less than 20 µM; in experiment [8] (setting [41]) it was no less than 20 µM; in experiment [9] it was no less than 20 µM; in experiment [10] (setting [41]), no less than 20 µM; in experiment [11] (setting [41]), no less than 20 µM; in experiment [12] (setting [41]) it was 0.0864 µM. Further, the Kd is no less than 20 µM in experiment [13]; no less than 20 µM in experiment [14]; no less than 20 µM in [15] (setting [41]); no less than 20 µM in experiment [16] (source organism: Orthomarburgvirus marburgense); no less than 20 µM in experiment [17] (setting [41]); 0.0098 µM in experiment [18].
On to VTRQIHNPR, for which the Kd was no less than 20 µM in experiment [4] (setting [42]); no less than 20 µM in experiment [19] (setting [42]); 0.00693 µM in experiment [20]; 1.86 µM in [7] (setting [42]); no less than 20 µM in experiment [8] (setting [42]); no less than 20 µM in [21]. In addition, the Kd in experiment [10] (setting [42]) is no less than 20 µM; in [22] it was no less than 20 µM; in [23] (setting [42]), no less than 20 µM; in [11] (setting [42]), no less than 20 µM; in [12] (setting [42]), no less than 20 µM; in experiment [24] (setting [42]) it was 11.6 µM. The Kd in experiment [15] (setting [42]) is 0.0968 µM; in experiment [17] (setting [42]), no less than 20 µM; in experiment [25] it was no less than 20 µM; in [26] (setting [42]), no less than 20 µM.
Regarding MVRQMRAAL, the Kd is 0.0335 µM in experiment [27] (setting [43]); 0.0991 µM in experiment [28] (setting [43]); 0.591 µM in experiment [29]; 0.356 µM in [30] (setting [43]); no less than 5 µM in experiment [31] (setting [43]); 0.526 µM in experiment [32] (setting [43]). In experiment [33] (setting [43]), this sequence returned a Kd of no less than 5 µM.
The sequence ALVVQVAEA yielded an IC50 in [34] of 2.58 µM.
For QRSYVSGVL, the IC50 in [35] is 5 µM.
In the case of MTFPVSLEY, the Kd was 0.123 µM in [27] (setting [44]); 3.5 µM in experiment [28] (setting [44]); 0.018 µM in [30] (setting [44]); 0.0363 µM in [36]; no less than 5 µM in experiment [31] (setting [44]); 0.0396 µM in experiment [32] (setting [44]). The Kd in experiment [37] was no more than 0.0001 µM; in experiment [33] (setting [44]), no less than 5 µM; in experiment [4] (setting [45]) it was 0.0434 µM; in [19] (setting [45]), no less than 20 µM; in experiment [38], no less than 20 µM; in experiment [10] (setting [45]), 0.014 µM. Besides, the Kd in experiment [23] (setting [45]) was no less than 20 µM; in experiment [11] (setting [45]), no less than 20 µM; in experiment [12] (setting [45]), no less than 20 µM; in experiment [24] (setting [45]) it was 0.0482 µM; in experiment [16] (source organism: Coxiella burnetii Q321), no less than 20 µM; in experiment [17] (setting [45]), 0.0249 µM. Also, the Kd in [26] (setting [45]) was no less than 20 µM; in experiment [39], 0.24 µM; in experiment [40] it was no less than 20 µM.

(Values after the Immune Epitope Database (IEDB).)
